Measured values from patent publication US20240415975A1 (ABTIS, published 2024).
Where “and” joins values, the source holds several entries; their conditions need not be identical. Equal values may be shown once.

Columns and labels:
[1] = biological target: Claudin 18.2 protein (CLDN18.2), expressed on cells (UniProt P56856); assay: cell-based ELISA (OD 450 nm) on SNU601 cells (CLDN18.2+); regression in GraphPad Prism
[2] = biological target: Claudin 18.2 protein (CLDN18.2), expressed on cells (UniProt P56856); assay: cell-based ELISA (OD 450 nm) on MIA PaCa-2-CLDN18.2 cells; regression in GraphPad Prism
[3] = biological target: CLDN18.2 virus-like particle (VLP) in which the claudin 18.2 protein (CLDN18.2) was expressed (UniProt P56856); assay: indirect ELISA (OD 450 nm) on plate coated with CLDN18.2 VLP; regression in GraphPad Prism
[4] = biological target: Claudin 18.2 protein (CLDN18.2), expressed on cells (UniProt P56856); assay: cell-based ELISA (OD 450 nm) on PATU8988S cells (CLDN18.2+); regression in GraphPad Prism
[5] = biological target: T1, Claudin 18.2 protein (CLDN18.2), expressed on cells (UniProt P56856-2 1-261); assay: cell-based or functional assay
[6] = biological target: T2, Claudin 18.1 protein (CLDN18.1), expressed on CHO-K1 cells (UniProt P56856 1-261, limits assumed); assay: cell-based ELISA on CHO-K1 cells transiently transfected with CLDN18.1
T2 construct: whole, on cells; also called CLDN18.1~CHO-K1
Description: (§1) The measured results were used for regression analysis in GraphPad PRISM® 9.0 software to calculate EC50 and Bmax.

[7] = biological target: T1, Claudin 18.2 protein (CLDN18.2), …; assay: cell-based ELISA on CHO-K1 cells transiently transfected with CLDN18.2; regression in GraphPad Prism (row labelled Kd, text says EC50)
Description: as §1

[8] = biological target: T3, CLDN18.2 virus-like particle (VLP) in which the claudin 18.2 protein (CLDN18.2) was expressed (UniProt P56856 1-261); assay: indirect ELISA on plate coated with CLDN18.2 VLP; regression in GraphPad Prism (row labelled Kd, text says EC50)
T3 construct: Bought reagent; also called CLDN18.2 VLP; CLDN18.2~VLP

Sequence of Zolbetuximab (antibody-B) (VH): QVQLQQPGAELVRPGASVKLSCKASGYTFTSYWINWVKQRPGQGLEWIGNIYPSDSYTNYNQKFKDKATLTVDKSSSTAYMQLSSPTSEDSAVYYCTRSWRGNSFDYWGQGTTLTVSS
Sequence of Zolbetuximab (antibody-B) (VL): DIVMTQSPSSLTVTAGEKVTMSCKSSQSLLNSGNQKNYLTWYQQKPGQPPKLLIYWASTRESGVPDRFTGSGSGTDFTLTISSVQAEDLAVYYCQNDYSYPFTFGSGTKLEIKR

Molecule | Bmax [1] | Bmax [2] | Bmax [3] | Bmax [4] | IC50 (nM), cell viability (CellTiter-Glo), MIA PaCa-2 (CLDN18.2+) [5] [nM] | IC50 (nM), cell viability (CellTiter-Glo), NUGC4 (CLDN18.2+) [5] [nM] | IC50 (nM), cell viability (CellTiter-Glo), PATU8988S (CLDN18.2+) [5] [nM] | IC50 (nM), cell viability (CellTiter-Glo), SNU601 (CLDN18.2+) [5] [nM] | binding result [6] | Kd [7] | Kd [8]
Zolbetuximab (antibody-B) | 1.7 | 3.05 | 2.13 | 1.21 |  |  |  |  |  |  | 
ADC-A (MMAE conjugated with antibody-A) (antibody, human IgG1, kappa, V domains shown, payload (PEG8)2-BG-MMAE linked through a linker to lysine residue 246 or 248 (EU numbering) of each heavy chain (DAR 2), which of K246 or K248 carries the payload is not resolved) VH: QVQLVESGGGVVQPGRSLRLSCAASGFSLTTYGVHWVRQAPGKGLEWVAVIWAGGSTNYNSALMSRFTISRDNSKNTLYLQMNSLRAEDTAVYYCARAAYYGNGLDYWGQGTMVTVSS VL: DIVMTQSPLSLPVTPGEPASISCKSSQTLLNSGNQKNYLTWYLQKPGQSPQLLIYWASTGESGVPDRFSGSGSGTDFTLKISRVEAEDVGVYYCQNAYFYPFTFGGGTKVEIKR |  |  |  |  | 0.101 | 1.59 | 0.279 | 0.095 | no binding | 0.123 µg/mL and 0.82 nM | 0.0527 µg/mL and 0.351 nM
anti-Claudin 18.2 antibody (Anti-CLDN18.2 mAb) (antibody-A) (antibody, human IgG1, kappa, V domains shown, two heavy and two light chains; Elsewhere called an IgG1 type anti-CLDN18.2 antibody; Obtained from GenScript ProBio) VH: QVQLVESGGGVVQPGRSLRLSCAASGFSLTTYGVHWVRQAPGKGLEWVAVIWAGGSTNYNSALMSRFTISRDNSKNTLYLQMNSLRAEDTAVYYCARAAYYGNGLDYWGQGTMVTVSS VL: DIVMTQSPLSLPVTPGEPASISCKSSQTLLNSGNQKNYLTWYLQKPGQSPQLLIYWASTGESGVPDRFSGSGSGTDFTLKISRVEAEDVGVYYCQNAYFYPFTFGGGTKVEIKR |  |  |  |  |  |  |  |  | no binding | 0.0636 µg/mL and 0.424 nM | 0.0319 µg/mL and 0.212 nM
